Assay results: patent US6703362 (CYTOGEN, dated 2004)

T1: D2H receptor domain (human D2H transporter, amino acid residues 387-685), His-tag fusion protein (human, UniProt Q07837 387-685)
T1 construct: purified under denaturing conditions; also called recombinant D2H; not shown: poly-histidine tag (pET vector) at the NH2-terminal end
T1 sequence: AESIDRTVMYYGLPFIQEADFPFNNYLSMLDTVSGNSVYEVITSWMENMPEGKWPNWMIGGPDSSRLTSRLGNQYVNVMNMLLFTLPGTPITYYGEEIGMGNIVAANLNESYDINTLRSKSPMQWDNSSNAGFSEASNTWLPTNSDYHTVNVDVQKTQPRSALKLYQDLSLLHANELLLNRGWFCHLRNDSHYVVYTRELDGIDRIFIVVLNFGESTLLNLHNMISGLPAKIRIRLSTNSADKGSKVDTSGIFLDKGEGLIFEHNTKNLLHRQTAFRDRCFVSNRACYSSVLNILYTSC

T2: hPEPT1 receptor domain (human PEPT1, amino acid residues 391-571), His-tag fusion protein (human, UniProt P46059 391-571)
T2 construct: purified under denaturing conditions; also called recombinant hPEPT1; not shown: poly-histidine tag (pET vector) at the NH2-terminal end
T2 sequence: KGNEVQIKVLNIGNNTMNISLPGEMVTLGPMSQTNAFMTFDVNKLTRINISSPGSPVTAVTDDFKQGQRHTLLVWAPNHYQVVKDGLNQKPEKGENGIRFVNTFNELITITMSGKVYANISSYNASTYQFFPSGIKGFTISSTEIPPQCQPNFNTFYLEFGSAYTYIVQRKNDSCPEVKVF

B1: S21 (peptide)
peptide: SPRSFWPVVSRHESFGISNYLGCGYRTCISGTMTKSSPIYPRHSAETVESCLAKPHTENSFTNVWKDDKTLDRYANYEGCLWNATGVVVCTGDETQCYGTWVPIGLAIPENEGGGSEGGGSEGGGSEGGGTKPPEYGDTPIPGYTYINPLDGTYPPGTEQNPANPNPSLEESQPLNTFMFQNNRFRNRQGALTVYTGTVTQGTDPVKTYYQYTPVSSKAMYDAYWNGKFRDCAFHSGFNEDPFVCEYQGQSSDLPQPPVNAGGGSGGGSGGGSEGGGSEGGGSEGGGSEGGGSGGGSGSGDFDYEKMANANKGAMTENADENALQSDAKGKLDSVATDYGAAIDGFIGDVSGLANGNGATGDFAGSNSQMAQVGDGDNSPLMNNFRQYLPSLPQSVECRPFVFSAGKPYEFSIDCDKINLFRGVFAFLLYVATFMYVFSTFANILRNKES
notes: Assayed as M13 phage clone displaying the insert
B2: S15 (peptide)
peptide: RSGAYESPDGRGGRSYVGGGGGCGNIGRKHNLWGLRTASPACWDAETVESCLAKPHTENSFTNVWKDDKTLDRYANYEGCLWNATGVVVCTGDETQCYGTWVPIGLAIPENEGGGSEGGGSEGGGSEGGGTKPPEYGDTPIPGYTYINPLDGTYPPGTEQNPANPNPSLEESQPLNTFMFQNNRFRNRQGALTVYTGTVTQGTDPVKTYYQYTPVSSKAMYDAYWNGKFRDCAFHSGFNEDPFVCEYQGQSSDLPQPPVNAGGGSGGGSGGGSEGGGSEGGGSEGGGSEGGGSGGGSGSGDFDYEKMANANKGAMTENADENALQSDAKGKLDSVATDYGAAIDGFIGDVSGLANGNGATGDFAGSNSQMAQVGDGDNSPLMNNFRQYLPSLPQSVECRPFVFSAGKPYEFSIDCDKINLFRGVFAFLLYVATFMYVFSTFANILRNKES
notes: as for B1
B3: S22 (peptide)
peptide: SSSSDWGGVPGKVVRERFKGRGCGISITSVLTGKPNPCPEPKAAAETVESCLAKPHTENSFTNVWKDDKTLDRYANYEGCLWNATGVVVCTGDETQCYGTWVPIGLAIPENEGGGSEGGGSEGGGSEGGGTKPPEYGDTPIPGYTYINPLDGTYPPGTEQNPANPNPSLEESQPLNTFMFQNNRFRNRQGALTVYTGTVTQGTDPVKTYYQYTPVSSKAMYDAYWNGKFRDCAFHSGFNEDPFVCEYQGQSSDLPQPPVNAGGGSGGGSGGGSEGGGSEGGGSEGGGSEGGGSGGGSGSGDFDYEKMANANKGAMTENADENALQSDAKGKLDSVATDYGAAIDGFIGDVSGLANGNGATGDFAGSNSQMAQVGDGDNSPLMNNFRQYLPSLPQSVECRPFVFSAGKPYEFSIDCDKINLFRGVFAFLLYVATFMYVFSTFANILRNKES
notes: as for B1
B4: DAB18 (peptide)
peptide: RSSANNCEWKSDWMRRACIARYANSSGPARAVDTKAAPAETVESCLAKPHTENSFTNVWKDDKTLDRYANYEGCLWNATGVVVCTGDETQCYGTWVPIGLAIPENEGGGSEGGGSEGGGSEGGGTKPPEYGDTPIPGYTYINPLDGTYPPGTEQNPANPNPSLEESQPLNTFMFQNNRFRNRQGALTVYTGTVTQGTDPVKTYYQYTPVSSKAMYDAYWNGKFRDCAFHSGFNEDPFVCEYQGQSSDLPQPPVNAGGGSGGGSGGGSEGGGSEGGGSEGGGSEGGGSGGGSGSGDFDYEKMANANKGAMTENADENALQSDAKGKLDSVATDYGAAIDGFIGDVSGLANGNGATGDFAGSNSQMAQVGDGDNSPLMNNFRQYLPSLPQSVECRPFVFSAGKPYEFSIDCDKINLFRGVFAFLLYVATFMYVFSTFANILRNKES
notes: as for B1
B5: DAB24 (peptide)
peptide: SKWSWSSRWGSPQDKVEKTRAGCGGSPSSTNCHPYTFAPPPQAGAETVESCLAKPHTENSFTNVWKDDKTLDRYANYEGCLWNATGVVVCTGDETQCYGTWVPIGLAIPENEGGGSEGGGSEGGGSEGGGTKPPEYGDTPIPGYTYINPLDGTYPPGTEQNPANPNPSLEESQPLNTFMFQNNRFRNRQGALTVYTGTVTQGTDPVKTYYQYTPVSSKAMYDAYWNGKFRDCAFHSGFNEDPFVCEYQGQSSDLPQPPVNAGGGSGGGSGGGSEGGGSEGGGSEGGGSEGGGSGGGSGSGDFDYEKMANANKGAMTENADENALQSDAKGKLDSVATDYGAAIDGFIGDVSGLANGNGATGDFAGSNSQMAQVGDGDNSPLMNNFRQYLPSLPQSVECRPFVFSAGKPYEFSIDCDKINLFRGVFAFLLYVATFMYVFSTFANILRNKES
notes: as for B1
B6: DAB7 (peptide)
peptide: RWCGADDPCGASRWRGGNSLFGCGLRCSAAQSTPSGRIHSTSTSAETVESCLAKPHTENSFTNVWKDDKTLDRYANYEGCLWNATGVVVCTGDETQCYGTWVPIGLAIPENEGGGSEGGGSEGGGSEGGGTKPPEYGDTPIPGYTYINPLDGTYPPGTEQNPANPNPSLEESQPLNTFMFQNNRFRNRQGALTVYTGTVTQGTDPVKTYYQYTPVSSKAMYDAYWNGKFRDCAFHSGFNEDPFVCEYQGQSSDLPQPPVNAGGGSGGGSGGGSEGGGSEGGGSEGGGSEGGGSGGGSGSGDFDYEKMANANKGAMTENADENALQSDAKGKLDSVATDYGAAIDGFIGDVSGLANGNGATGDFAGSNSQMAQVGDGDNSPLMNNFRQYLPSLPQSVECRPFVFSAGKPYEFSIDCDKINLFRGVFAFLLYVATFMYVFSTFANILRNKES
notes: as for B1
B7: DAB3 (peptide)
peptide: RWCGAELCNSVTKKFRPGWRDHANPSTHHRTPPPSQSSPAETVESCLAKPHTENSFTNVWKDDKTLDRYANYEGCLWNATGVVVCTGDETQCYGTWVPIGLAIPENEGGGSEGGGSEGGGSEGGGTKPPEYGDTPIPGYTYINPLDGTYPPGTEQNPANPNPSLEESQPLNTFMFQNNRFRNRQGALTVYTGTVTQGTDPVKTYYQYTPVSSKAMYDAYWNGKFRDCAFHSGFNEDPFVCEYQGQSSDLPQPPVNAGGGSGGGSGGGSEGGGSEGGGSEGGGSEGGGSGGGSGSGDFDYEKMANANKGAMTENADENALQSDAKGKLDSVATDYGAAIDGFIGDVSGLANGNGATGDFAGSNSQMAQVGDGDNSPLMNNFRQYLPSLPQSVECRPFVFSAGKPYEFSIDCDKINLFRGVFAFLLYVATFMYVFSTFANILRNKES
notes: as for B1
B8: PAX15 (peptide)
peptide: SYCRVKGGGEGGHTDSNLARSGCGKVARTSRLQHINPRATPPSRAETVESCLAKPHTENSFTNVWKDDKTLDRYANYEGCLWNATGVVVCTGDETQCYGTWVPIGLAIPENEGGGSEGGGSEGGGSEGGGTKPPEYGDTPIPGYTYINPLDGTYPPGTEQNPANPNPSLEESQPLNTFMFQNNRFRNRQGALTVYTGTVTQGTDPVKTYYQYTPVSSKAMYDAYWNGKFRDCAFHSGFNEDPFVCEYQGQSSDLPQPPVNAGGGSGGGSGGGSEGGGSEGGGSEGGGSEGGGSGGGSGSGDFDYEKMANANKGAMTENADENALQSDAKGKLDSVATDYGAAIDGFIGDVSGLANGNGATGDFAGSNSQMAQVGDGDNSPLMNNFRQYLPSLPQSVECRPFVFSAGKPYEFSIDCDKINLFRGVFAFLLYVATFMYVFSTFANILRNKES
notes: as for B1
B9: PAX16 (peptide)
peptide: SWTRWGKHTHGGFVNKSPPGKNATSPYTDAQLPSDQGPPAETVESCLAKPHTENSFTNVWKDDKTLDRYANYEGCLWNATGVVVCTGDETQCYGTWVPIGLAIPENEGGGSEGGGSEGGGSEGGGTKPPEYGDTPIPGYTYINPLDGTYPPGTEQNPANPNPSLEESQPLNTFMFQNNRFRNRQGALTVYTGTVTQGTDPVKTYYQYTPVSSKAMYDAYWNGKFRDCAFHSGFNEDPFVCEYQGQSSDLPQPPVNAGGGSGGGSGGGSEGGGSEGGGSEGGGSEGGGSGGGSGSGDFDYEKMANANKGAMTENADENALQSDAKGKLDSVATDYGAAIDGFIGDVSGLANGNGATGDFAGSNSQMAQVGDGDNSPLMNNFRQYLPSLPQSVECRPFVFSAGKPYEFSIDCDKINLFRGVFAFLLYVATFMYVFSTFANILRNKES
notes: as for B1
B10: PAX14 (peptide)
peptide: RTFENDGLGVGRSIQKKSDRWYASHNIRSHFASMSPAGKAETVESCLAKPHTENSFTNVWKDDKTLDRYANYEGCLWNATGVVVCTGDETQCYGTWVPIGLAIPENEGGGSEGGGSEGGGSEGGGTKPPEYGDTPIPGYTYINPLDGTYPPGTEQNPANPNPSLEESQPLNTFMFQNNRFRNRQGALTVYTGTVTQGTDPVKTYYQYTPVSSKAMYDAYWNGKFRDCAFHSGFNEDPFVCEYQGQSSDLPQPPVNAGGGSGGGSGGGSEGGGSEGGGSEGGGSEGGGSGGGSGSGDFDYEKMANANKGAMTENADENALQSDAKGKLDSVATDYGAAIDGFIGDVSGLANGNGATGDFAGSNSQMAQVGDGDNSPLMNNFRQYLPSLPQSVECRPFVFSAGKPYEFSIDCDKINLFRGVFAFLLYVATFMYVFSTFANILRNKES
notes: as for B1

Molecular target: T3, hSI receptor domain (human sucrase-isomaltase complex, amino acid residues 272-667), His-tag fusion protein (human, UniProt P14410 272-667)
T3 construct: also called hS1; recombinant hSI; not shown: poly-histidine tag (pET vector) at the NH2-terminal end
T3 sequence (P14410 272-667, one chain of several): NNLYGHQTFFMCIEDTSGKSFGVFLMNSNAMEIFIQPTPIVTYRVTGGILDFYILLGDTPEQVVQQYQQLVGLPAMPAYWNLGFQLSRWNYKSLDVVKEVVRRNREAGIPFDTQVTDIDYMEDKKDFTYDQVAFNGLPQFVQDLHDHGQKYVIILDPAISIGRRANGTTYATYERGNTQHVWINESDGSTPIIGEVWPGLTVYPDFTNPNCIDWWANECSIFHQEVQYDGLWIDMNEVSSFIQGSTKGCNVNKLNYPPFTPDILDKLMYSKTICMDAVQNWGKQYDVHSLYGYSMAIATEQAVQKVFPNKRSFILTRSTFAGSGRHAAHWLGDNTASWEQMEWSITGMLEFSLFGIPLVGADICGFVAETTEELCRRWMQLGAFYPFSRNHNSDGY
Test: phage ELISA, plate coated with hSI domain
Procedure: (§1) 6.6. Receptor ELISA Procedure 96 well plates were coated overnight with GIT receptor, BSA and, optionally, IDE (insulin degrading enzyme, an irrelevant His-fusion protein)or hTF. The plates were blocked for one hour with 0.5% BSA-PBS. After clarification, the amplified phage were diluted 1:100 in […] plus 0.05% Tween 20 in PBS and added to the plates. Following incubation of the plates on a rotator for 1 to 2 hours, the plates were washed 5 times with 1% BSA plus 0.05% Tween 20 in PBS. […] After the plates were washed 5 times, as described above, TMB substrate was added to the wells. The plates were read at 650 nm absorbance.

| Binder | OD |
| --- | --- |
| B1 | 0.845 OD |
| B2 | 0.478 OD |
| B3 | 0.399 OD |

Molecular target: T1, D2H receptor domain (human D2H …)
Test: phage ELISA, plate coated with D2H domain
Procedure: as §1

| Binder | OD |
| --- | --- |
| B4 | 0.467 OD |
| B5 | 1.8 OD |
| B6 | 0.702 OD |
| B7 | 0.406 OD |

Molecular target: T2, hPEPT1 receptor domain (human PEPT1, …)
Test: phage ELISA, plate coated with hPEPT1 domain
Procedure: as §1

| Binder | OD |
| --- | --- |
| B8 | 0.301 OD |
| B9 | 0.648 OD |
| B10 | 1.1 OD |
